These results are taken from paper PMC4404995.

What is called Km is the concentration of substrate that gives half-maximal velocity.

Substrate in this data set: CC(=O)c1ccc(O[C@@H]2O[C@H](CO)[C@@H](O)[C@H](O)[C@H]2O)cc1
In words: LC-MS assay of aglycon release. The settings on record: 0.01–2.0 mM picein, 20 mM MES-KOH, pH 6, 37°C, 1 h. The data set is classed as biochemical, Picea glauca.

B1: PgβGLU-1 (Picea glauca) (protein)
chain: TSPDLGRSSFPKGFKFGAGSSAYQDEGAALEGGKGPSIWDTFSHIQGKIEDGKNGDVAVDQYHRYKEDVRHLKYMGMDLYRFSISWSRIFPQGSPRHGGVNEEGITYYNNLINELLKNGMEPFVTLYHWDMPQALEDEYGGFRSQRVVEDIGTFAEECFRAFGDRVKYWTTINEPLTFTLYGYDLGIHAPGRCSPGFGNCTAGNSATEPYIVTHNMLLAHSAAVKTYRTKYQGKQKGSIGISLVVNWMVPYSNSLLDQEATQRAIDFRIGWFLDPLTSGKYPDSMRSLVGARLPRFSSEEAKDLKGSFDFLGYNYYQTYFTVNNPTPQNSLNTDYVLDAQANISQQVNGVYVGSSEGVSSFRSYPAGLREVINYTKHRYSNPPIYITETGYGDFDNGTTPLEEALQDSGRVEYYSKHLSSLLEAIREGADVRGYVVWSFLDGFEWASGYDYRFGLYYVDYNDNLKRYPRESANWFRNVLKS
In the case of B1, the Km is 1280 ± 530 µM.
